This note sets out measurements from article PMC8811885 (ACS Omega, 2022).

The data set deals with the molecule itself. Description: SEC-MALS. Background: Size exclusion chromatography separates by hydrodynamic size, large species first.

B1: human ELP1 with a C-terminal 3xFLAG tag (natural protein, UniProt O95163 1-1332, looked up)
chain: MRNLKLFRTLEFRDIQGPGNPQCFSLRTEQGTVLIGSEHGLIEVDPVSREVKNEVSLVAEGFLPEDGSGRIVGVQDLLDQESVCVATASGDVILCSLSTQQLECVGSVASGISVMSWSPDQELVLLATGQQTLIMMTKDFEPILEQQIHQDDFGESKFITVGWGRKETQFHGSEGRQAAFQMQMHESALPWDDHRPQVTWRGDGQFFAVSVVCPETGARKVRVWNREFALQSTSEPVAGLGPALAWKPSGSLIASTQDKPNQQDIVFFEKNGLLHGHFTLPFLKDEVKVNDLLWNADSSVLAVWLEDLQREESSIPKTCVQLWTVGNYHWYLKQSLSFSTCGKSKIVSLMWDPVTPYRLHVLCQGWHYLAYDWHWTTDRSVGDNSSDLSNVAVIDGNRVLVTVFRQTVVPPPMCTYQLLFPHPVNQVTFLAHPQKSNDLAVLDASNQISVYKCGDCPSADPTVKLGAVGGSGFKVCLRTPHLEKRYKIQFENNEDQDVNPLKLGLLTWIEEDVFLAVSHSEFSPRSVIHHLTAASSEMDEEHGQLNVSSSAAVDGVIISLCCNSKTKSVVLQLADGQIFKYLWESPSLAIKPWKNSGGFPVRFPYPCTQTELAMIGEEECVLGLTDRCRFFINDIEVASNITSFAVYDEFLLLTTHSHTCQCFCLRDASFKTLQAGLSSNHVSHGEVLRKVERGSRIVTVVPQDTKLVLQMPRGNLEVVHHRALVLAQIRKWLDKLMFKEAFECMRKLRINLNLIYDHNPKVFLGNVETFIKQIDSVNHINLFFTELKEEDVTKTMYPAPVTSSVYLSRDPDGNKIDLVCDAMRAVMESINPHKYCLSILTSHVKKTTPELEIVLQKVHELQGNAPSDPDAVSAEEALKYLLHLVDVNELYDHSLGTYDFDLVLMVAEKSQKDPKEYLPFLNTLKKMETNYQRFTIDKYLKRYEKAIGHLSKCGPEYFPECLNLIKDKNLYNEALKLYSPSSQQYQDISIAYGEHLMQEHMYEPAGLMFARCGAHEKALSAFLTCGNWKQALCVAAQLNFTKDQLVGLGRTLAGKLVEQRKHIDAAMVLEECAQDYEEAVLLLLEGAAWEEALRLVYKYNRLDIIETNVKPSILEAQKNYMAFLDSQTATFSRHKKRLLVVRELKEQAQQAGLDDEVPHGQESDLFSETSSVVSGSEMSGKYSHSNSRISARSSKNRRKAERKKHSLKEGSPLEDLALLEALSEVVQNTENLKDEVYHILKVLFLFEFDEQGRELQKAFEDTLQLMERSLPEIWTLTYQQNSATPVLGPNSTANSIMASYQQQKTSVPVLDAELFIPPKINRRTQWKLSLLD
By stoichiometry N is commonly meant a count of units in the complex or per binding partner. Regarding B1, the “stoichiometry N” value was determined as 2.
